Measured values as given in patent US12723255B2, “Herbicide tolerance genes and methods of use thereof” (priority 2014, dated 2026).

Tests used:
Format in all cases: in vivo
transgenic maize plants = experiment: trait efficacy field trials with homozygous inbred plants, CTP evaluation; settings: crop injury percentage
Description: To evaluate different chloroplast targeting peptides (CTP), plant transformation vectors were constructed, each comprising a recombinant DNA molecule optimized for monocot expression and encoding MON-HTI (SEQ ID NO: 16), MON-HT2 (SEQ ID NO:20), and MON-HT8 (SEQ ID NO:39), MON-HT9 (SEQ ID NO:42), or MON-HT10 (SEQ ID NO:45). The vectors were created using the same combination of promoter, leader, intron, and 3′-UTR, but with one of three separate CTPs (A, B, or C) or without a CTP operably linked to the protein-coding sequence. The DNA constructs were used to transform immature maize (LH244) embryos using Agrobacterium tumifaciens and standard methods known in the art. Regenerated RO transgenic plantlets were grown in the green house. The R0 plants were selfed to generate R1 homozygous seed. The R0 plants were also used as the male to cross with inbred plants containing maize event MON89034 to generate segregating F1 hybrid seed for trait efficacy field trials.
Separate trait efficacy field trials for quizalofop-P and 2,4-D were conducted at two locations each with the homozygous inbred transgenic plants (R2 or R4 generation). In these field trials, one of two herbicide treatments was used: (1) quizalofop-P (Assure II) at 0.16 lb ai/acre (2×) plus 0.25% v/v non-ionic surfactant (NIS) applied at V4 growth stage followed by the same at V8 growth stage; or (2) 2,4-D amine at 2 lb ae/acre (2×) plus 0.25% v/v non-ionic surfactant (NIS) applied to V4 followed by V8. Injury ratings (crop injury percentage at V4 (CIPV4) or V8 (CIPV8)) were taken 10 to 14 days after the V4 and V8 applications. Error was calculated using LSD (0.05).

F1 hybrid maize plants [1] = experiment: trait efficacy field trial, quizalofop-P pressure screening, F1 hybrid; settings: crop injury percentage; for 4X Qizalofop-P CIPV4 / 4X Qizalofop-P CIPV8: 0.32 lb ai/acre at VE-V2, V4, V8; for 8X Qizalofop-P CIPV4 / 8X Qizalofop-P CIPV8: 0.64 lb ai/acre at VE-V2, V4, V8; for 16X Qizalofop-P CIPV4 / 16X Qizalofop-P CIPV8: 1.28 lb ai/acre at VE-V2, V4, V8
Experimental: (§1) Separate trait efficacy field trials for quizalofop-P and 2,4-D pressure screening were conducted at one location each with F1 hybrid transgenic plants produced by crossing an inbred plant containing maize event MON89034 with an R1 plant containing MON-HT1, MON-HT2, MON-HT8, MON-HT9, and MON-HT10 with and without operably linked CTP sequences. Transgenic F1 hybrid plants containing maize events NK603×MON89034 were used for comparison as a control.
In the trait efficacy field trial for quizalofop-P tolerance, one of three herbicide treatments was used: (1) quizalofop-P (Assure II) at 0.32 lb ai/acre (4×) plus 0.25% v/v non-ionic surfactant (NIS) applied at VE-V2 growth stage followed by the same at V4 growth stage followed by the same at V8 growth stage; (2) quizalofop-P at 0.64 lb ai/acre (8×) plus 0.25% v/v NIS applied at VE-V2 growth stage followed by the same at V4 growth stage followed by the same at V8 growth stage; or (3) quizalofop-P at 1.28 lb ai/acre (16×) plus 0.25% v/v NIS applied at VE-V2 growth stage followed by the same at V4 growth stage followed by the same at V8 growth stage. Plots were visually rated as above. […] The injury rating for the control plants after all quizalofop-P application was 100%. Error was calculated using LSD (0.05).

F1 hybrid maize plants [2] = experiment: trait efficacy field trial, 2,4-D pressure screening, F1 hybrid; settings: crop injury percentage; for 4X 2,4-D CIPV4 / 4X 2,4-D CIPV8: 4 lb ae/acre at VE-V2, V4, V8; for 8X 2,4-D CIPV4 / 8X 2,4-D CIPV8: 8 lb ae/acre at VE-V2, V4, V8; for 16X 2,4-D CIPV4 / 16X 2,4-D CIPV8: 16 lb ae/acre at VE-V2, V4, V8
Experimental: as §1
Three herbicide treatments were used in the trait efficacy field trial for 2,4-D tolerance: (1) 2,4-D amine at 4 lb ac/acre (4×) plus 0.25% v/v NIS applied to VE-V2 followed by V4 followed by V8; (2) 2,4-D amine at 8 lb ac/acre (8×) plus 0.25% v/v NIS applied to VE-V2 followed by V4followed by V8 maize; or (3) 2,4-D amine at 16 lb ac/acre (16×) plus 0.25% v/v NIS applied to VE-V2 followed by V4 followed by V8. Plots were visually rated as above.
The injury rating for the control plants after all 2,4-D applications ranged from 80% to 96.25%. At the highest rate of 2,4-D (16×) applied through V8, the plants containing MON-HT1 or MON-HT2 operably linked to any of the three CTPs (A, B, or C) had better tolerance than plants containing MON-HT1 or MON-HT2 not operably linked to a CTP. Plants containing MON-HT1, MON-HT2, or MON-HT8 with or without an operably linked CTP had better tolerance to 2,4-D at all applications tested compared to plants containing either MON-HT9 or MON-HT10 with an operably linked ‘A’ CTP. Over the range of 2,4-D applications the relative ranking of tolerance was: plants containing MON-HT1 had better tolerance than plants containing MON-HT2 which were in turn better than plants containing MON-HT8. […] Error was calculated using LSD (0.05).

[3] = CTP B, 0.16 lb ai/acre at V4, V8
[4] = CTP C, 0.16 lb ai/acre at V4, V8

B1: MON-HT8: engineered oxygenase protein, amino acid sequence SEQ ID NO:37 (protein)
chain: MHAALTPLTNKYRFIDVQPLTGVLGAEITGVDLREPLDDSTWNEILDAFHTYQVIYFPGQAITNEQHIAFSRRFGPVDPVPILKSIEGYPEVQMIRREANESGRVIGDDWHTDSTFLDAPPAAVVMRAIEVPEYGGDTGFLSMYSAWETLSPTMQATIEGLNVVHSATKVFGSLYQATNWRFSNTSVKVMDVDAGDRETVHPLVVTHPVTGRRALYCNQVYCQKIQGMTDAESKSLLQFLYEHATKFDFTCRVRWKKDQVLVWDNLCTMHRSVPDYGNAFRYLTRTTVAGDKPSR
- 2X Quizalofop-P CIPV4 (transgenic maize plants; CTP A, 0.16 lb ai/acre at V4, V8, LSD (0.05) = 1.45): 0
- 2X Quizalofop-P CIPV8 (transgenic maize plants; CTP A, 0.16 lb ai/acre at V4, V8, LSD (0.05) = 2.2): 1.25
- 2X 2,4-D CIPV4 (transgenic maize plants; CTP A, 2 lb ae/acre at V4, V8, LSD (0.05) = 0.95): 1.75
- 2X 2,4-D CIPV8 (transgenic maize plants; CTP A, 2 lb ae/acre at V4, V8, LSD (0.05) = 1.6): 1.25
- 2X Quizalofop-P CIPV4 (transgenic maize plants; [3]): 0.75
- 2X Quizalofop-P CIPV8 (transgenic maize plants; [3]): 2.5
- 2X 2,4-D CIPV4 (transgenic maize plants; CTP B, 2 lb ae/acre at V4, V8): 0
- 2X 2,4-D CIPV8 (transgenic maize plants; CTP B, 2 lb ae/acre at V4, V8): 1.25
- 2X Quizalofop-P CIPV4 (transgenic maize plants; [4]): 0
- 2X Quizalofop-P CIPV8 (transgenic maize plants; [4]): 1.25
- 2X 2,4-D CIPV4 (transgenic maize plants; CTP C, 2 lb ae/acre at V4, V8): 1.25
- 2X 2,4-D CIPV8 (transgenic maize plants; CTP C, 2 lb ae/acre at V4, V8): 0
- 4X Qizalofop-P CIPV4 (F1 hybrid maize plants [1]; CTP A): 15
- 4X Qizalofop-P CIPV8 (F1 hybrid maize plants [1]; CTP A): 15
- 8X Qizalofop-P CIPV4 (F1 hybrid maize plants [1]; CTP A): 37.5
- 8X Qizalofop-P CIPV8 (F1 hybrid maize plants [1]; CTP A): 35
- 16X Qizalofop-P CIPV4 (F1 hybrid maize plants [1]; CTP A): 60
- 16X Qizalofop-P CIPV8 (F1 hybrid maize plants [1]; CTP A): 50
- 4X Qizalofop-P CIPV4 (F1 hybrid maize plants [1]; CTP B): 5
- 4X Qizalofop-P CIPV8 (F1 hybrid maize plants [1]; CTP B): 7.5
- 8X Qizalofop-P CIPV4 (F1 hybrid maize plants [1]; CTP B): 32.5
- 8X Qizalofop-P CIPV8 (F1 hybrid maize plants [1]; CTP B): 35
- 16X Qizalofop-P CIPV4 (F1 hybrid maize plants [1]; CTP B): 27.5
- 16X Qizalofop-P CIPV8 (F1 hybrid maize plants [1]; CTP B): 30
- 4X Qizalofop-P CIPV4 (F1 hybrid maize plants [1]; CTP C): 55
- 4X Qizalofop-P CIPV8 (F1 hybrid maize plants [1]; CTP C): 45
- 8X Qizalofop-P CIPV4 (F1 hybrid maize plants [1]; CTP C): 75
- 8X Qizalofop-P CIPV8 (F1 hybrid maize plants [1]; CTP C): 55
- 16X Qizalofop-P CIPV4 (F1 hybrid maize plants [1]; CTP C): 85
- 16X Qizalofop-P CIPV8 (F1 hybrid maize plants [1]; CTP C): 72.5
- 4X 2,4-D CIPV4 (F1 hybrid maize plants [2]; CTP A): 7.5
- 4X 2,4-D CIPV8 (F1 hybrid maize plants [2]; CTP A): 5
- 8X 2,4-D CIPV4 (F1 hybrid maize plants [2]; CTP A): 10
- 8X 2,4-D CIPV8 (F1 hybrid maize plants [2]; CTP A): 12.5
- 16X 2,4-D CIPV4 (F1 hybrid maize plants [2]; CTP A): 15
- 16X 2,4-D CIPV8 (F1 hybrid maize plants [2]; CTP A): 30
- 4X 2,4-D CIPV4 (F1 hybrid maize plants [2]; CTP B): 5
- 4X 2,4-D CIPV8 (F1 hybrid maize plants [2]; CTP B): 7.5
- 8X 2,4-D CIPV4 (F1 hybrid maize plants [2]; CTP B): 10
- 8X 2,4-D CIPV8 (F1 hybrid maize plants [2]; CTP B): 27.5
- 16X 2,4-D CIPV4 (F1 hybrid maize plants [2]; CTP B): 10
- 16X 2,4-D CIPV8 (F1 hybrid maize plants [2]; CTP B): 20
- 4X 2,4-D CIPV4 (F1 hybrid maize plants [2]; CTP C): 10
- 4X 2,4-D CIPV8 (F1 hybrid maize plants [2]; CTP C): 7.5
- 8X 2,4-D CIPV4 (F1 hybrid maize plants [2]; CTP C): 10
- 8X 2,4-D CIPV8 (F1 hybrid maize plants [2]; CTP C): 17.5
- 16X 2,4-D CIPV4 (F1 hybrid maize plants [2]; CTP C): 17.5
- 16X 2,4-D CIPV8 (F1 hybrid maize plants [2]; CTP C): 25
